The series concerns the target T1, MBP-MYB62 (Arabidopsis thaliana, UniProt Q9C9G7 1-286).
T1 sequence: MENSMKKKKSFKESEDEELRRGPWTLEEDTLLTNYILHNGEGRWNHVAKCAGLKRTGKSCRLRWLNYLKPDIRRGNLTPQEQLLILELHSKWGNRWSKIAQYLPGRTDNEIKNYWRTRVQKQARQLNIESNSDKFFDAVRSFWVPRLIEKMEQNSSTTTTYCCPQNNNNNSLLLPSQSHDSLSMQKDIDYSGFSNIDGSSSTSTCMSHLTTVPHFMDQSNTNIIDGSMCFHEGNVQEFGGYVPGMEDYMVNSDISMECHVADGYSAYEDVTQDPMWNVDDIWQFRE
The series can be described thus: EMSA; EMSA: 2.5% glycerol, 50 mM KCl, 5 mM MgCl2, 10 mM EDTA, 30 min, room temperature; pH not stated. The conditions noted are these: protein: recombinant; tags: MBP (pMAL-c2x); label: biotin on both strands (BIO printed before each oligo); blunt.

B1: ProGA2ox7 probe (MYB element) (dsDNA)
DNA 1: AAGCCCTTGGTTGGGGATGG
DNA 2: CCATCCCCAACCAAGGGCTT
On to B1, for which the binding result is recorded as “binds”.
